From patent US20250018014A1, “METHOD FOR TREATING AND/OR PREVENTING REGNASE-1-RELATED DISEASE” (OSAKA UNIVERSITY, priority 2018, published 2025)

Assays:
[1] = target: T1, FLAG-tagged Regnase-1 AA mutant (S435A/S439A), purified from or expressed in Regnase-1-deficient MEFs
T1 chain: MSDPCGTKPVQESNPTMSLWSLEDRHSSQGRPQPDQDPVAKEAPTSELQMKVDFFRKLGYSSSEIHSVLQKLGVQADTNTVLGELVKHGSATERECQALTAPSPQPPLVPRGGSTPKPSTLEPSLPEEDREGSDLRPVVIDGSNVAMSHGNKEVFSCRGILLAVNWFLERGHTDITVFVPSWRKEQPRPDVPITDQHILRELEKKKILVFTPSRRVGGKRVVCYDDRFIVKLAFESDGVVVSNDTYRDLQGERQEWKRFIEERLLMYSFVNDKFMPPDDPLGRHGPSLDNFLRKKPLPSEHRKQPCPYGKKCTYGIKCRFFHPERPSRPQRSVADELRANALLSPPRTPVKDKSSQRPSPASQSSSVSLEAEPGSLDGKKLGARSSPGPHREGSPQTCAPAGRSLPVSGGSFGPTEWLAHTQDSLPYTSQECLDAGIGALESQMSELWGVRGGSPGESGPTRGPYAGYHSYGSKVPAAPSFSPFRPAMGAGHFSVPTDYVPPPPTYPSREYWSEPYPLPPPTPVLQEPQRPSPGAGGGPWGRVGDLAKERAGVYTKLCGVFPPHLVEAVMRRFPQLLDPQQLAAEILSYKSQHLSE

[2] = target: T2, biotinylated human Regnase-1 (full length, C-terminal BirA recognition sequence, GST tag cleaved)
T2 chain: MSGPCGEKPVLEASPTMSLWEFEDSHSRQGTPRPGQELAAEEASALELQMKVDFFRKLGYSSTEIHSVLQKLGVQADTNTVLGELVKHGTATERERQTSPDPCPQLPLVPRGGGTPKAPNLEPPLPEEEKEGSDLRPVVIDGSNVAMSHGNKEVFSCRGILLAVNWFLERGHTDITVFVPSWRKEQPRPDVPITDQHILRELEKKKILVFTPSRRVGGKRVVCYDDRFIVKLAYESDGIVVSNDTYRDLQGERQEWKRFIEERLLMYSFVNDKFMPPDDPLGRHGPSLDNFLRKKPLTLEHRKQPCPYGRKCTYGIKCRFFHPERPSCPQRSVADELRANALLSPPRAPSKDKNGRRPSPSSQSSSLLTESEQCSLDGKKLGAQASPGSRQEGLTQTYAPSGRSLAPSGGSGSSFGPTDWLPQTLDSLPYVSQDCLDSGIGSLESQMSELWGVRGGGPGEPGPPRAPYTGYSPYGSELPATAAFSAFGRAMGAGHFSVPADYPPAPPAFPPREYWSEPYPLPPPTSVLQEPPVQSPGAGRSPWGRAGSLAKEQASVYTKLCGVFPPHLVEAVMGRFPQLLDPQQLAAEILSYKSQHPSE

Protein	in vitro phosphorylation (mobility shift by immunoblotting, 32P autoradiography) [1]	in vitro phosphorylation reaction, western blotting with anti-phosphorylated Regnase-1 antibody [2]
GST-tagged IKKi (Thermo Fisher Scientific) (protein) MQSTANYLWHTDDLLGQGATASVYKARNKKSGELVAVKVFNTTSYLRPREVQVREFEVLRKLNHQNIVKLFAVEETGGSRQKVLVMEYCSSGSLLSVLESPENAFGLPEDEFLVVLRCVVAGMNHLRENGIVHRDIKPGNIMRLVGEEGQSIYKLTDFGAARELDDDEKFVSVYGTEEYLHPDMYERAVLRKPQQKAFGVTVDLWSIGVTLYHAATGSLPFIPFGGPRRNKEIMYRITTEKPAGAIAGAQRRENGPLEWSYTLPITCQLSLGLQSQLVPILANILEVEQAKCWGFDQFFAETSDILQRVVVHVFSLSQAVLHHIYIHAHNTIAIFQEAVHKQTSVAPRHQEYLFEGHLCVLEPSVSAQHIAHTTASSPLTLFSTAIPKGLAFRDPALDVPKFVPKVDLQADYNTAKGVLGAGYQALRLARALLDGQELMFRGLHWVMEVLQATCRRTLEVARTSLLYLSSSLGTERFSSVAGTPEIQELKAAAELRSRLRTLAEVLSRCSQNITETQESLSSLNRELVKSRDQVHEDRSIQQIQCCLDKMNFIYKQFKKSRMRPGLGYNEEQIHKLDKVNFSHLAKRLLQVFQEECVQKYQASLVTHGKRMRVVHETRNHLRLVGCSVAACNTEAQGVQESLSKLLEELSHQLLQDRAKGAQASPPPIAPYPSPTRKDLLLHMQELCEGMKLLASDLLDNNRIIERLNRVPAPPDV	Phosphorylation of recombinant Regnase-1 by recombinant TBK1 and/or IKKi under in vitro conditions was detected	
IKKβ (manufactured by SignalChem) (protein) MSWSPSLTTQTCGAWEMKERLGTGGFGNVIRWHNQETGEQIAIKQCRQELSPRNRERWCLEIQIMRRLTHPNVVAARDVPEGMQNLAPNDLPLLAMEYCQGGDLRKYLNQFENCCGLREGAILTLLSDIASALRYLHENRIIHRDLKPENIVLQQGEQRLIHKIIDLGYAKELDQGSLCTSFVGTLQYLAPELLEQQKYTVTVDYWSFGTLAFECITGFRPFLPNWQPVQWHSKVRQKSEVDIVVSEDLNGTVKFSSSLPYPNNLNSVLAERLEKWLQLMLMWHPRQRGTDPTYGPNGCFKALDDILNLKLVHILNMVTGTIHTYPVTEDESLQSLKARIQQDTGIPEEDQELLQEAGLALIPDKPATQCISDGKLNEGHTLDMDLVFLFDNSKITYETQISPRPQPESVSCILQEPKRNLAFFQLRKVWGQVWHSIQTLKEDCNRLQQGQRAAMMNLLRNNSCLSKMKNSMASMSQQLKAKLDFFKTSIQIDLEKYSEQTEFGITSDKLLLAWREMEQAVELCGRENEVKLLVERMMALQTDIVDLQRSPMGRKQGGTLDDLEEQARELYRRLREKPRDQRTEGDSQEMVRLLLQAIQSFEKKVRVIYTQLSKTVVCKQKALELLPKVEEVVSLMNEDEKTVVRLQEKRQKELWNLLKIACSKVRGPVSGSPDSMNASRLSQPGQLMSQPSTASNSLPEPAKKSEELVAEAHNLCTLLENAIQDTVREQDQSFTALDWSWLQTEEEEHSCLEQAS		it was confirmed that human Regnase-1 is phosphorylated by IKKβ and TBK1
GST-tagged TBK1 (Sigma) (protein) MQSTSNHLWLLSDILGQGATANVFRGRHKKTGDLFAIKVFNNISFLRPVDVQMREFEVLKKLNHKNIVKLFAIEEETTTRHKVLIMEFCPCGSLYTVLEEPSNAYGLPESEFLIVLRDVVGGMNHLRENGIVHRDIKPGNIMRVIGEDGQSVYKLTDFGAARELEDDEQFVSLYGTEEYLHPDMYERAVLRKDHQKKYGATVDLWSIGVTFYHAATGSLPFRPFEGPRRNKEVMYKIITGKPSGAISGVQKAENGPIDWSGDMPVSCSLSRGLQVLLTPVLANILEADQEKCWGFDQFFAETSDILHRMVIHVFSLQQMTAHKIYIHSYNTATIFHELVYKQTKIISSNQELIYEGRRLVLEPGRLAQHFPKTTEENPIFVVSREPLNTIGLIYEKISLPKVHPRYDLDGDASMAKAITGVVCYACRIASTLLLYQELMRKGIRWLIELIKDDYNETVHKKTEVVITLDFCIRNIEKTVKVYEKLMKINLEAAELGEISDIHTKLLRLSSSQGTIETSLQDIDSRLSPGGSLADAWAHQEGTHPKDRNVEKLQVLLNCMTEIYYQFKKDKAERRLAYNEEQIHKFDKQKLYYHATKAMTHFTDECVKKYEAFLNKSEEWIRKMLHLRKQLLSLTNQCFDIEEEVSKYQEYTNELQETLPQKMFTASSGIKHTMTPIYPSSNTLVEMTLGMKKLKEEMEGVVKELAENNHILERFGSLTMDGGLRNVDCL	Phosphorylation of recombinant Regnase-1 by recombinant TBK1 and/or IKKi under in vitro conditions was detected	
TBK1 (manufactured by SignalChem) (protein) MQSTSNHLWLLSDILGQGATANVFRGRHKKTGDLFAIKVFNNISFLRPVDVQMREFEVLKKLNHKNIVKLFAIEEETTTRHKVLIMEFCPCGSLYTVLEEPSNAYGLPESEFLIVLRDVVGGMNHLRENGIVHRDIKPGNIMRVIGEDGQSVYKLTDFGAARELEDDEQFVSLYGTEEYLHPDMYERAVLRKDHQKKYGATVDLWSIGVTFYHAATGSLPFRPFEGPRRNKEVMYKIITGKPSGAISGVQKAENGPIDWSGDMPVSCSLSRGLQVLLTPVLANILEADQEKCWGFDQFFAETSDILHRMVIHVFSLQQMTAHKIYIHSYNTATIFHELVYKQTKIISSNQELIYEGRRLVLEPGRLAQHFPKTTEENPIFVVSREPLNTIGLIYEKISLPKVHPRYDLDGDASMAKAITGVVCYACRIASTLLLYQELMRKGIRWLIELIKDDYNETVHKKTEVVITLDFCIRNIEKTVKVYEKLMKINLEAAELGEISDIHTKLLRLSSSQGTIETSLQDIDSRLSPGGSLADAWAHQEGTHPKDRNVEKLQVLLNCMTEIYYQFKKDKAERRLAYNEEQIHKFDKQKLYYHATKAMTHFTDECVKKYEAFLNKSEEWIRKMLHLRKQLLSLTNQCFDIEEEVSKYQEYTNELQETLPQKMFTASSGIKHTMTPIYPSSNTLVEMTLGMKKLKEEMEGVVKELAENNHILERFGSLTMDGGLRNVDCL		it was confirmed that human Regnase-1 is phosphorylated by IKKβ and TBK1
